This note sets out measurements from PMC3667722.

For test [1], the target named is GST-p120-catenin isoform 4A (mouse). Description: pull-down.
Test [2] has as its target GST-p120-catenin isoform 4A Δ560–628 (mouse). Description: pull-down.

Chain of GST-p120-catenin isoform 4A (mouse) (P30999 whole entry, canonical isoform): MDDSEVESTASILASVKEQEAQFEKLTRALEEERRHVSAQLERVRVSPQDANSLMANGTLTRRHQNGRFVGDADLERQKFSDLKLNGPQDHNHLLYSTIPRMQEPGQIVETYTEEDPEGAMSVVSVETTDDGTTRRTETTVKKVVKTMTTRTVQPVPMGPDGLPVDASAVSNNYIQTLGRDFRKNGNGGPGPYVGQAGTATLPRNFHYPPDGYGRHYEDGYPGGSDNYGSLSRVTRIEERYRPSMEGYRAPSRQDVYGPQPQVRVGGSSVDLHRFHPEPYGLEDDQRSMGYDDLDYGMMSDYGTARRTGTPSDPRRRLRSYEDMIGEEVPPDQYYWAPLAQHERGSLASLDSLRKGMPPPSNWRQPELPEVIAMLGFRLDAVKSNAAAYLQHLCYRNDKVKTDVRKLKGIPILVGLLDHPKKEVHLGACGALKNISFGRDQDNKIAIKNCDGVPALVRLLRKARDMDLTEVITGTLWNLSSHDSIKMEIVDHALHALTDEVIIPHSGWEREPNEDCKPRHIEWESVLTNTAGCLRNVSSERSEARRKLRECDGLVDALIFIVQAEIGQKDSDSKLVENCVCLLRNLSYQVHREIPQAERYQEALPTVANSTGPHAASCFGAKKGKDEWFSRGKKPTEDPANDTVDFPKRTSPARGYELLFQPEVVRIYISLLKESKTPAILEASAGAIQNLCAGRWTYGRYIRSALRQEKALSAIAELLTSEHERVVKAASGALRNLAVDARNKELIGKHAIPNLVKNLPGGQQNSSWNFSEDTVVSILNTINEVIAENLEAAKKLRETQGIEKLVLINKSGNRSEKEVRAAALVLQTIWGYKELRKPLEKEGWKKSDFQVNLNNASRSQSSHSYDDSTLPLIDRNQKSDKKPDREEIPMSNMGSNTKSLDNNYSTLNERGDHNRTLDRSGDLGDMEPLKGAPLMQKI

With “p190RhoGAP-B (from UniProt Q13017 1-1502) (natural protein)”, the values for the p190B bound, percent of that bound to isoform 3A in test [1] and in test [2] were 43% and 38%, respectively.
